{
  "source": "patent US20190083587A1",
  "about": "(Novo Nordisk, published 2019)",
  "key": {"hTLT-1.126-162 [1]": {"target": "T1, hTLT-1.126-162 (human)", "T1 construct": "Made by solid phase peptide synthesis; not glycosylated; also called TLT-1 stalk peptide; chain P", "T1 peptide": "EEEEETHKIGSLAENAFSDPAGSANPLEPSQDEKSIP", "assay": "told in the HX-MS example; method not given"}, "hTLT-1 ECD-His": {"target": "T2, hTLT-1 ECD-His (human, UniProt Q86YW5 16-162)", "T2 construct": "Extracellular domain of human TLT-1 with C-terminal His-6 tag; the range 16-168 is computed from these; also called TLT-1-His; His tagged human TLT1", "T2 sequence": "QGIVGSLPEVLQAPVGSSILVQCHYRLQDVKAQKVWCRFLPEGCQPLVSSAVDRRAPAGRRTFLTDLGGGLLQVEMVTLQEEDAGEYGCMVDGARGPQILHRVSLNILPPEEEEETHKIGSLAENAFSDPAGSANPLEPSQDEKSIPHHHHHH", "assay": "SPR Biacore, mAb captured via human Fc mAb, TLT-1 as analyte", "procedure": "Method: The mAbs of interest were either immobilized directly to a CM5 chip or by capture via a human Fc capture mAb immobilized to a CM5 chip, while TLT-1-His was immobilized by capture via an anti-His mAb CM5 chip for analysis of Fabs.\nmAb direct capture: The TLT-1 mAbs were immobilised to a level of approx 500-1000 RU on a CM5 chip (50 μg/ml diluted in Na-acetate, pH 4.0) using the standard procedure recommended by the supplier. Two-fold dilutions of TLT-1 from 200 nM to 0.2 nM were tested for binding to the mAbs. Running and dilution buffer: 10 mM HEPES, 150 mM, 0.005% p20, pH 7.4. Regeneration was obtained by 10 mM Glycine, pH 1.7. mAb capture via human Fc mAb: Human Fc mAb was immobilised to approx 10.000 RU. The mAb of interest was added (approx 100 nM). Two-fold dilutions of TLT-1 from 200 nM to 0.2 nM were tested. Running and dilution buffer: 10 mM HEPES, 150 mM, 0.005% p20, pH 7.4. Regeneration was obtained in 3 M MgCl₂."}, "[2]": {"target": "T3, biotinylated 20 mer peptide 5 from stalk region of TLT-1 (N-terminal bio-Oeg (biotin, 8-amino-3,6-dioxaoctanoic acid spacer))", "T3 construct": "also called A 5", "T3 peptide": "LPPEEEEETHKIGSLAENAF", "assay": "peptide-walking ELISA on streptavidin plate, triple determination", "procedure": "(§1) The peptide walking ELISA defined the minimal binding region of the peptide. This was established by coating biotinylated peptides with one residue frameshift in the stalk region of TLT-1 in streptavidin plates followed by binding of the antibody of interest (mAb0061). A secondary antibody was added for detection and binding was measured at 450 nm. Positive control: binding to biotinylated TLT-1."}, "[3]": {"target": "T4, biotinylated 20 mer peptide 6 from stalk region of TLT-1 (N-terminal bio-Oeg (biotin, 8-amino-3,6-dioxaoctanoic acid spacer))", "T4 construct": "also called A 6", "T4 peptide": "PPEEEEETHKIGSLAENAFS", "assay": "peptide-walking ELISA on streptavidin plate, triple determination", "procedure": "as §1"}, "[4]": {"target": "T5, biotinylated 20 mer peptide 7 from stalk region of TLT-1 (N-terminal bio-Oeg (biotin, 8-amino-3,6-dioxaoctanoic acid spacer))", "T5 construct": "also called A 7", "T5 peptide": "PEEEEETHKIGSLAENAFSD", "assay": "peptide-walking ELISA on streptavidin plate, triple determination", "procedure": "as §1"}, "[5]": {"target": "T6, biotinylated 20 mer peptide 8 from stalk region of TLT-1 (N-terminal bio-Oeg (biotin, 8-amino-3,6-dioxaoctanoic acid spacer))", "T6 construct": "also called A 8", "T6 peptide": "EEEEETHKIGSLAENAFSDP", "assay": "peptide-walking ELISA on streptavidin plate, triple determination", "procedure": "as §1"}, "[6]": {"target": "T7, biotinylated 20 mer peptide 9 from stalk region of TLT-1 (N-terminal bio-Oeg (biotin, 8-amino-3,6-dioxaoctanoic acid spacer))", "T7 construct": "also called A 9", "T7 peptide": "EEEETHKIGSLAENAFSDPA", "assay": "peptide-walking ELISA on streptavidin plate, triple determination", "procedure": "as §1"}, "[7]": {"target": "T8, biotinylated 20 mer peptide 10 from stalk region of TLT-1 (N-terminal bio-Oeg (biotin, 8-amino-3,6-dioxaoctanoic acid spacer))", "T8 construct": "also called A10", "T8 peptide": "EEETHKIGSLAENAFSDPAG", "assay": "peptide-walking ELISA on streptavidin plate, triple determination", "procedure": "as §1"}, "[8]": {"target": "T9, biotinylated 20 mer peptide 11 from stalk region of TLT-1 (N-terminal bio-Oeg (biotin, 8-amino-3,6-dioxaoctanoic acid spacer))", "T9 construct": "also called A11", "T9 peptide": "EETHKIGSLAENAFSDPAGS", "assay": "peptide-walking ELISA on streptavidin plate, triple determination", "procedure": "as §1"}, "[9]": {"target": "T10, biotinylated 20 mer peptide 12 from stalk region of TLT-1 (N-terminal bio-Oeg (biotin, 8-amino-3,6-dioxaoctanoic acid spacer))", "T10 construct": "also called A12", "T10 peptide": "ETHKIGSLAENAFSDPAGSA", "assay": "peptide-walking ELISA on streptavidin plate, triple determination", "procedure": "as §1"}, "[10]": {"target": "T11, biotinylated 20 mer peptide 13 from stalk region of TLT-1 (N-terminal bio-Oeg (biotin, 8-amino-3,6-dioxaoctanoic acid spacer))", "T11 construct": "also called B 1", "T11 peptide": "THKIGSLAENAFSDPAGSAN", "assay": "peptide-walking ELISA on streptavidin plate, triple determination", "procedure": "as §1"}, "[11]": {"target": "T12, biotinylated 20 mer peptide 14 from stalk region of TLT-1 (N-terminal bio-Oeg (biotin, 8-amino-3,6-dioxaoctanoic acid spacer))", "T12 construct": "also called B 2", "T12 peptide": "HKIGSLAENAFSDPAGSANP", "assay": "peptide-walking ELISA on streptavidin plate, triple determination", "procedure": "as §1"}, "[12]": {"target": "T13, biotinylated 20 mer peptide 15 from stalk region of TLT-1 (N-terminal bio-Oeg (biotin, 8-amino-3,6-dioxaoctanoic acid spacer))", "T13 construct": "also called B 3", "T13 peptide": "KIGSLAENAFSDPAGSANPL", "assay": "peptide-walking ELISA on streptavidin plate, triple determination", "procedure": "as §1"}, "[13]": {"target": "T14, biotinylated 20 mer peptide 16 from stalk region of TLT-1 (N-terminal bio-Oeg (biotin, 8-amino-3,6-dioxaoctanoic acid spacer))", "T14 construct": "also called B 4", "T14 peptide": "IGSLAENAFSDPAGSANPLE", "assay": "peptide-walking ELISA on streptavidin plate, triple determination", "procedure": "as §1"}, "[14]": {"target": "T15, biotinylated 16 mer peptide 36 from the stalk region of hTLT-1 (SMILES …)", "T15 construct": "also called C12", "T15 peptide": "{Biotin-AEEA}-EEEETHKIGSLAENAF-NH2", "assay": "peptide-walking ELISA on streptavidin plate, triple determination", "procedure": "as §1"}, "[15]": {"target": "T16, biotinylated 16 mer peptide 37 from the stalk region of hTLT-1 (SMILES …)", "T16 peptide": "{Biotin-AEEA}-EEETHKIGSLAENAFS-NH2", "assay": "peptide-walking ELISA on streptavidin plate, triple determination", "procedure": "as §1"}, "[16]": {"target": "T17, biotinylated 16 mer peptide 38 from the stalk region of hTLT-1 (SMILES …)", "T17 construct": "also called D 2", "T17 peptide": "{Biotin-AEEA}-EETHKIGSLAENAFSD-NH2", "assay": "peptide-walking ELISA on streptavidin plate, triple determination", "procedure": "as §1"}, "[17]": {"target": "T18, biotinylated 16 mer peptide 39 from the stalk region of hTLT-1 (SMILES …)", "T18 construct": "also called D 3", "T18 peptide": "{Biotin-AEEA}-ETHKIGSLAENAFSDP-NH2", "assay": "peptide-walking ELISA on streptavidin plate, triple determination", "procedure": "as §1"}, "[18]": {"target": "T19, biotinylated 16 mer peptide 40 from the stalk region of hTLT-1 (SMILES …)", "T19 construct": "also called D 4", "T19 peptide": "{Biotin-AEEA}-THKIGSLAENAFSDPA-NH2", "assay": "peptide-walking ELISA on streptavidin plate, triple determination", "procedure": "as §1"}, "[19]": {"target": "T20, biotinylated 16 mer peptide 41 from the stalk region of hTLT-1 (SMILES …)", "T20 construct": "also called D 5", "T20 peptide": "{Biotin-AEEA}-HKIGSLAENAFSDPAG-NH2", "assay": "peptide-walking ELISA on streptavidin plate, triple determination", "procedure": "as §1"}, "[20]": {"target": "T21, biotinylated 16 mer peptide 42 from the stalk region of hTLT-1 (SMILES …)", "T21 construct": "also called D 6", "T21 peptide": "{Biotin-AEEA}-KIGSLAENAFSDPAGS-NH2", "assay": "peptide-walking ELISA on streptavidin plate, triple determination", "procedure": "as §1"}, "hTLT-1.126-162 [21]": {"target": "T1, hTLT-1.126-162", "assay": "crystal structure of the Fab0100:hTLT-1.126-162 complex; complex isolated by gel filtration", "procedure": "The complex was subjected to gel filtration using a Superdex 200 HighLoad 26/60 (GE Healthcare) column eluted with PBS-buffer (pH 7.4) at a flow rate of 1 ml/min. Fractions corresponding to a volume of 3 ml were collected.\nThe crystal was allowed to soak for about 15 seconds, then flash frozen in liquid N₂ and during data collection kept at 100 K by a cryogenic N₂ gas stream. Crystallographic data were subsequently collected to 1.85 Å resolution at beam-line BL911-3 (Ursby, T. et al. (2004) AIP Conference Proceedings 705, 1241-1246) at MAX-lab, Lund, Sweden. Space group determination, integration and scaling of the data were made in the XDS software package. Cell parameters for the synchrotron data were determined to be 82.54, 65.32, 108.05 Å, 90°, 95.15° and 90°, for a, b, c, α, β and γ, respectively, and space group was determined to be C2. Rsym for intensities of the data set was calculated to be 6.7%."}},
  "note": "The star is where a group is joined. Biotin = O=C1N[C@H]2[C@H](CS[C@H]2CCCCC(=O)*)N1; AEEA = NCCOCCOCC(=O)O",
  "data": [
    {"binder": "mAb0061 (antibody, human IgG4 S228P, kappa, V domains shown, Mouse VH/VL, human IgG4 / kappa; variant of mAb0012 (HC T60N, LC C36A, Kabat); also called antiTLT-1 0061mab; (0012HC.T60N)2) VH: EVKLLESGGGLVQPGGSLKLSCAASGFDFSRYWMTWVRQAPGKGLEWIGEINPDSSTINYNPSLKDKFIISRDNAKNTLYLQMSEVRSEDTALYYCASGVFTSWGQGTLVTVSA VL: DVVMTQTPLSLPVSLGDQASISCRSSQSLVHRNGNTYFHWALQKPGQSPKLLIYKVSNRFSGVPDRFSGSGSGTDFTLKISRVEAEDLGVYFCSQSTHVPYTFGGGTKLEIKR", "values": [
      {"measurement": "binding result", "setting": "hTLT-1.126-162 [1]", "value": "binds"},
      {"measurement": "Kd", "setting": "hTLT-1 ECD-His", "value": 3.75, "unit": "nM"},
      {"measurement": "koff", "setting": "hTLT-1 ECD-His", "value": 0.0035, "unit": "s⁻¹"},
      {"measurement": "kon", "setting": "hTLT-1 ECD-His", "value": 932000, "unit": "M⁻¹ s⁻¹"},
      {"measurement": "absorbance at 450 nm", "setting": "[2]", "value": "> 3"},
      {"measurement": "absorbance at 450 nm", "setting": "[3]", "value": "> 3"},
      {"measurement": "absorbance at 450 nm", "setting": "[4]", "value": "> 3"},
      {"measurement": "absorbance at 450 nm", "setting": "[5]", "value": "> 3"},
      {"measurement": "absorbance at 450 nm", "setting": "[6]", "value": "> 3"},
      {"measurement": "absorbance at 450 nm", "setting": "[7]", "value": "> 3"},
      {"measurement": "absorbance at 450 nm", "setting": "[8]", "value": "> 3"},
      {"measurement": "absorbance at 450 nm", "setting": "[9]", "value": "> 3"},
      {"measurement": "absorbance at 450 nm", "setting": "[10]", "value": "> 3"},
      {"measurement": "absorbance at 450 nm", "setting": "[11]", "value": "> 3"},
      {"measurement": "absorbance at 450 nm", "setting": "[12]", "value": "> 3"},
      {"measurement": "absorbance at 450 nm", "setting": "[13]", "value": "> 3"},
      {"measurement": "absorbance at 450 nm", "setting": "[14]", "value": "> 3"},
      {"measurement": "absorbance at 450 nm", "setting": "[15]", "value": "> 3"},
      {"measurement": "absorbance at 450 nm", "setting": "[16]", "value": "> 3"},
      {"measurement": "absorbance at 450 nm", "setting": "[17]", "value": "> 3"},
      {"measurement": "absorbance at 450 nm", "setting": "[18]", "value": "> 3"},
      {"measurement": "absorbance at 450 nm", "setting": "[19]", "value": "> 3"},
      {"measurement": "absorbance at 450 nm", "setting": "[20]", "value": "> 3"}
    ]},
    {"binder": "Fab0100 (Fab, V domains shown, also called anti-TLT-1 Fab; identical to Fab0061) VH: EVKLLESGGGLVQPGGSLKLSCAASGFDFSRYWMTWVRQAPGKGLEWIGEINPDSSTINYNPSLKDKFIISRDNAKNTLYLQMSEVRSEDTALYYCASGVFTSWGQGTLVTVSA VL: DVVMTQTPLSLPVSLGDQASISCRSSQSLVHRNGNTYFHWALQKPGQSPKLLIYKVSNRFSGVPDRFSGSGSGTDFTLKISRVEAEDLGVYFCSQSTHVPYTFGGGTKLEIKR", "values": [
      {"measurement": "binding result", "setting": "hTLT-1.126-162 [21]", "value": "binds"}
    ]}
  ]
}
